Source: PMC4141209 (FEBS Open Bio, 2014)

Molecular target: the molecule itself
Experiment: SEC

B1: TlLhpH (trans-3-hydroxy-L-proline dehydratase from Thermococcus litoralis DSM 5473) (enzyme, UniProt H3ZMH8 1-348, looked up)
chain: MFKKLENLEKWEPPKDWMVIKTLDTHTAGEPLRIILSGFPEIPGKTILEKRRYLMENLDHLRKALMWEPRGHADMYGAIITEPVSEEADFGVIFMHNEGYSTMCGHATIALGKVAVECGLVEAKEPITEIKMDSPAGLIKIYVKVRDGKVEKVYFHNVPSFVLFKDETINVPGIGEVKYDLAYGGAFYAFVNAEEIGLKCTPEYYRQLIDVGMKIKRAIMSEKEIRHPFEEDLSFLYGTIFIGEPEDENSHSRHVCIFADGEVDRSPTGTGVSARLAILYEKGEIDIGEEITIESIIGTKFTGKVVEETRYGLYRAIIPEVGGNAYIVAKNTFLIDPQDPLKYGFFLR
With B1 the “stoichiometry N” value was 2.
